Laboratory results from article PMC6105217, “Modification of translation factor aIF5A from Sulfolobus solfataricus” (Extremophiles, 2018).

Target: the molecule itself
Assay: SEC-MALS; Superdex S200 10/300 GL increase, 20 mM Tris-HCl pH 7.5, 150 mM NaCl, 25 °C; protein pre-incubated at 65 °C for 10 min, 100 µl injected at 1.5 mg/ml

B1: recombinant aDHS-C-His (enzyme, Sulfolobus solfataricus, UniProt Q97ZF1 1-312, looked up)
chain: MINREDLLKNPVEDITLSDLKKYNDIVSVFDKIYGFSSEGIVNGSKILKEMIKNADLRFLSFTANLVSTGLRGLFADLIKKGYFNIVVTTGGTIDHDLARSFGGVYYKGSFDIDDTMLKDLEIHRLGNVLVPFESYGKVIEDVVRKFLPEITKDRKEISAYELLWEFGKRITDSNSILRAAYDKNVPIIVPGILDGSFGTNLFIQSQFLNFRINLFEDMRLIKDLIFSSKKSGALIIGGGISKHHTIWWNQFKDGLNYAIYITTAQEYDGSLSGAKPREAISWNKIRPDAKHVTIYGDATIIVPILAASLLS
notes: deoxyhypusine synthase, Sulfolobus solfataricus P2, ORF SSO0967, amplified by PCR from genomic DNA; source: E. coli BL21 (DE3) (pQE-70-DHS-C-His), purified (Ni-NTA); not shown: His-tag, C-terminal, kept
stoichiometry N: 4
